According to publication PMC5557760:

Target: T1, PtpA (Mycobacterium tuberculosis) (UniProt P9WIA1)
T1 sequence: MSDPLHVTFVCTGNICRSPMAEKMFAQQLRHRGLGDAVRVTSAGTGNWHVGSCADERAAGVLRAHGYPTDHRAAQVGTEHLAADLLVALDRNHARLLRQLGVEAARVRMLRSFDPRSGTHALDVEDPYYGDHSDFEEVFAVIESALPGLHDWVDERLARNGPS
Assay: competition
Conditions: EMSA: 10 ug PtpA, 10 nM biotin-labeled DNA, Beyotime GS009 binding buffer (salt, pH not stated), 20 min, room temperature, 15% native PAGE

Question: With “CCTTAAAACAAAAGACATGAAAAGATAATAAGAAAAAAGTGCCGCAACTATTATAGAAAAACACTTGGCAGCCTGCTTCAGCCCAAGCTGAGGCCACCTCTAGCCTCTGCTAAAGCCCCCCACTCCCAATGGTCCCCGCCAACCGGATAA (double strand) [GADD45A promoter -250 to -100, unlabeled negative competitor]” as the sequence, how does the binding read?
Answer: The binding was “no binding”.
